± gives the standard deviation of the averaged measurements.
Tested on: ATP
Assay: switch fluorescence ratio, 500 uM ATP over buffer (Cy3 cluster intensity, sum of 5 cycles each) (fold (ratio)); higher = stronger signal-on switching upon ATP binding; sequences stand for … in TCGTCGGCAGCGTCAGATGTGTATAAGAGACAGTTTTTTTTTTTTTTTTTTTTTTTTT…TC
Conditions: aptamer strand: ATP DNA aptamer (quencher-CACCTGGGGGAGTATTGCGGAGGAAGG + anchor), 100 nM annealed; ATP concentration: 500 uM
How it was run: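 For every switch-domain sequence, the fluorescence ratio is the mean of per-cluster values, each being summed target-cycle Cy3 intensity over summed buffer-cycle Cy3 intensity. Clusters outside 100-1000 RFU were excluded. On a modified Illumina MiSeq flow-cell, the Cy3-labelled switching-strand clusters were annealed to 100 nM quencher-labelled ATP aptamer, imaged in selection buffer and then after 15 min with 500 uM ATP at 22 °C. Five such cycles were run, with NaOH stripping and re-annealing between them.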
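Further: ATP exposure 15 min at 22 °C before imaging.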

**Q.** Which switch fluorescence ratio does the source give for GCGGTCGGTA here?
**A.** 1.03 ± 0.038

**Q.** Which switch fluorescence ratio does the source give for GCGGTGACGG here?
**A.** 1 ± 0.062

**Q.** For GCGGTGGATC, which switch fluorescence ratio is on record?
**A.** 1.04 ± 0.027

**Q.** With GCGGTTCGAG as the sequence, how does the switch fluorescence ratio read?
**A.** 0.9872 ± 0.0033

**Q.** Which switch fluorescence ratio does the source give for GCGGTTGAGG here?
**A.** 1.001 ± 0.009

**Q.** With GCGTAAAGTG as the sequence, how does the switch fluorescence ratio read?
**A.** 0.994 ± 0.038

**Q.** How did the switch fluorescence ratio turn out when GCGTAATGGT was run?
**A.** 1.095 ± 0.0043

**Q.** How did the switch fluorescence ratio turn out when GCGTAGTATT was run?
**A.** 0.9954 ± 0.0085

**Q.** For GCGTATACGG, which switch fluorescence ratio is on record?
**A.** 1.01 ± 0.028

**Q.** With GCGTATATAA as the sequence, how does the switch fluorescence ratio read?
**A.** 1.04 ± 0.044

**Q.** For GCGTATGTAT, which switch fluorescence ratio is on record?
**A.** 1.002 ± 0.0068

**Q.** How did the switch fluorescence ratio turn out when GCGTCAGGCG was run?
**A.** 0.971 ± 0.026

**Q.** GCGTCAGGGG was tested. Which switch fluorescence ratio did it give?
**A.** 1.03 ± 0.086

**Q.** With GCGTCAGGGT as the sequence, how does the switch fluorescence ratio read?
**A.** 0.973 ± 0.027

**Q.** Which switch fluorescence ratio does the source give for GCGTCAGTCG here?
**A.** 0.949 ± 0.015

**Q.** GCGTCTGGGG was tested. Which switch fluorescence ratio did it give?
**A.** 1.019 ± 0.0046

**Q.** GCGTCTTCAT was tested. Which switch fluorescence ratio did it give?
**A.** 0.979 ± 0.011

**Q.** For GCGTCTTGTG, which switch fluorescence ratio is on record?
**A.** 1.02 ± 0.11

**Q.** With GCGTCTTTGG as the sequence, how does the switch fluorescence ratio read?
**A.** 0.988 ± 0.026

**Q.** With GCGTGACGGG as the sequence, how does the switch fluorescence ratio read?
**A.** 0.989 ± 0.037

**Q.** GCGTGAGCAC was tested. Which switch fluorescence ratio did it give?
**A.** 0.9745 ± 0.0089

**Q.** For GCGTGATAAT, which switch fluorescence ratio is on record?
**A.** 1 ± 0.062

**Q.** For GCGTGCATTA, which switch fluorescence ratio is on record?
**A.** 0.984 ± 0.034

**Q.** For GCGTGCCGAC, which switch fluorescence ratio is on record?
**A.** 0.9793 ± 0.0041

**Q.** For GCGTGTATGA, which switch fluorescence ratio is on record?
**A.** 1.02 ± 0.033

**Q.** With GCGTGTATGG as the sequence, how does the switch fluorescence ratio read?
**A.** 1.03 ± 0.03

**Q.** For GCGTTAAAAG, which switch fluorescence ratio is on record?
**A.** 1.03 ± 0.02

**Q.** Which switch fluorescence ratio does the source give for GCGTTAACGG here?
**A.** 1.02 ± 0.011

**Q.** How did the switch fluorescence ratio turn out when GCGTTACGGG was run?
**A.** 1.002 ± 0.0089

**Q.** How did the switch fluorescence ratio turn out when GCGTTAGGGG was run?
**A.** 0.979 ± 0.016

**Q.** Which switch fluorescence ratio does the source give for GCGTTATACA here?
**A.** 0.9979 ± 0.0039

**Q.** With GCGTTATTTG as the sequence, how does the switch fluorescence ratio read?
**A.** 0.9878 ± 0.0073

**Q.** GCGTTCATAG was tested. Which switch fluorescence ratio did it give?
**A.** 0.995 ± 0.023

**Q.** Which switch fluorescence ratio does the source give for GCGTTCGGCA here?
**A.** 0.991 ± 0.026

**Q.** Which switch fluorescence ratio does the source give for GCGTTCTCGT here?
**A.** 0.989 ± 0.018

**Q.** For GCGTTGAGGG, which switch fluorescence ratio is on record?
**A.** 0.952 ± 0.079

**Q.** GCGTTGATGT was tested. Which switch fluorescence ratio did it give?
**A.** 0.981 ± 0.017

**Q.** How did the switch fluorescence ratio turn out when GCGTTGGG was run?
**A.** 1.02 ± 0.029

**Q.** How did the switch fluorescence ratio turn out when GCGTTGGGAG was run?
**A.** 1.018 ± 0.0031

**Q.** Which switch fluorescence ratio does the source give for GCGTTGGGCT here?
**A.** 0.949 ± 0.016

**Q.** How did the switch fluorescence ratio turn out when GCGTTGGGGA was run?
**A.** 1.02 ± 0.015

**Q.** With GCGTTGGGGT as the sequence, how does the switch fluorescence ratio read?
**A.** 1.01 ± 0.019

**Q.** For GCGTTTAAAG, which switch fluorescence ratio is on record?
**A.** 0.994 ± 0.023

**Q.** Which switch fluorescence ratio does the source give for GCGTTTCTAG here?
**A.** 0.992 ± 0.028

**Q.** How did the switch fluorescence ratio turn out when GCGTTTGAAA was run?
**A.** 1.01 ± 0.013

**Q.** GCGTTTTAGC was tested. Which switch fluorescence ratio did it give?
**A.** 0.995 ± 0.041

**Q.** With GCGTTTTCGA as the sequence, how does the switch fluorescence ratio read?
**A.** 1 ± 0.021

**Q.** GCTAAAAAAT was tested. Which switch fluorescence ratio did it give?
**A.** 0.98 ± 0.013

**Q.** With GCTAAAAGGA as the sequence, how does the switch fluorescence ratio read?
**A.** 0.975 ± 0.021

**Q.** Which switch fluorescence ratio does the source give for GCTAAAATGG here?
**A.** 0.9916 ± 0.0076

**Q.** How did the switch fluorescence ratio turn out when GCTAAATTAT was run?
**A.** 0.963 ± 0.021

**Q.** Which switch fluorescence ratio does the source give for GCTAACACGG here?
**A.** 1.048 ± 0.0053

**Q.** With GCTAACTTTT as the sequence, how does the switch fluorescence ratio read?
**A.** 1.03 ± 0.021

**Q.** Which switch fluorescence ratio does the source give for GCTAAGTATG here?
**A.** 1.04 ± 0.043

**Q.** Which switch fluorescence ratio does the source give for GCTAATAGTT here?
**A.** 1.01 ± 0.06

**Q.** Which switch fluorescence ratio does the source give for GCTAATGTGC here?
**A.** 1.02 ± 0.018

**Q.** Which switch fluorescence ratio does the source give for GCTACCTGGT here?
**A.** 1.02 ± 0.013

**Q.** Which switch fluorescence ratio does the source give for GCTACGCAGC here?
**A.** 3.05 ± 1.8

**Q.** For GCTACGGTAT, which switch fluorescence ratio is on record?
**A.** 1.13 ± 0.07

**Q.** Which switch fluorescence ratio does the source give for GCTAGAATAT here?
**A.** 1.02 ± 0.014

**Q.** For GCTAGAATGT, which switch fluorescence ratio is on record?
**A.** 1 ± 0.019

**Q.** For GCTAGAGACG, which switch fluorescence ratio is on record?
**A.** 1.06 ± 0.054

**Q.** For GCTAGATGGG, which switch fluorescence ratio is on record?
**A.** 1.01 ± 0.034

**Q.** How did the switch fluorescence ratio turn out when GCTAGCGGAC was run?
**A.** 1.14 ± 0.025

**Q.** GCTAGGGGA was tested. Which switch fluorescence ratio did it give?
**A.** 1.02 ± 0.011

**Q.** Which switch fluorescence ratio does the source give for GCTAGGGGGA here?
**A.** 1.03 ± 0.05

**Q.** How did the switch fluorescence ratio turn out when GCTAGTCTCA was run?
**A.** 1.01 ± 0.028

**Q.** How did the switch fluorescence ratio turn out when GCTAGTTGGT was run?
**A.** 0.99 ± 0.017

**Q.** With GCTAGTTGTA as the sequence, how does the switch fluorescence ratio read?
**A.** 0.9995 ± 0.0074

**Q.** Which switch fluorescence ratio does the source give for GCTAGTTTTT here?
**A.** 1 ± 0.022

**Q.** Which switch fluorescence ratio does the source give for GCTATAAGCC here?
**A.** 1.05 ± 0.039

**Q.** Which switch fluorescence ratio does the source give for GCTATATCTA here?
**A.** 1.02 ± 0.022

**Q.** For GCTATATGTA, which switch fluorescence ratio is on record?
**A.** 1 ± 0.031

**Q.** For GCTATCAGCG, which switch fluorescence ratio is on record?
**A.** 0.995 ± 0.023

**Q.** How did the switch fluorescence ratio turn out when GCTATCTTTT was run?
**A.** 1.02 ± 0.04

**Q.** For GCTATGGGCG, which switch fluorescence ratio is on record?
**A.** 1.03 ± 0.033

**Q.** With GCTATGTTTG as the sequence, how does the switch fluorescence ratio read?
**A.** 0.9757 ± 0.0064

**Q.** GCTATTAAAG was tested. Which switch fluorescence ratio did it give?
**A.** 1 ± 0.026

**Q.** Which switch fluorescence ratio does the source give for GCTATTATTT here?
**A.** 0.9845 ± 0.0027

**Q.** GCTATTGTGT was tested. Which switch fluorescence ratio did it give?
**A.** 0.9858 ± 0.0036

**Q.** Which switch fluorescence ratio does the source give for GCTATTGTTT here?
**A.** 0.9633 ± 0.0082

**Q.** Which switch fluorescence ratio does the source give for GCTATTTTCG here?
**A.** 0.99 ± 0.023

**Q.** For GCTATTTTTT, which switch fluorescence ratio is on record?
**A.** 0.987 ± 0.022

**Q.** GCTCAAATGG was tested. Which switch fluorescence ratio did it give?
**A.** 1.04 ± 0.013

**Q.** For GCTCAAGCGA, which switch fluorescence ratio is on record?
**A.** 1.464 ± 0.0035

**Q.** With GCTCAATCTT as the sequence, how does the switch fluorescence ratio read?
**A.** 0.967 ± 0.01

**Q.** With GCTCAATTTA as the sequence, how does the switch fluorescence ratio read?
**A.** 0.9689 ± 0.0083

**Q.** With GCTCATTGGC as the sequence, how does the switch fluorescence ratio read?
**A.** 0.992 ± 0.027

**Q.** GCTCCTCGCT was tested. Which switch fluorescence ratio did it give?
**A.** 1.23 ± 0.081

**Q.** GCTCCTTAGG was tested. Which switch fluorescence ratio did it give?
**A.** 1.12 ± 0.048

**Q.** With GCTCGACGGC as the sequence, how does the switch fluorescence ratio read?
**A.** 1.017 ± 0.0018

**Q.** GCTCGAGGGT was tested. Which switch fluorescence ratio did it give?
**A.** 1 ± 0.03

**Q.** For GCTCGAGTGG, which switch fluorescence ratio is on record?
**A.** 1.03 ± 0.053

**Q.** For GCTCGGTTTG, which switch fluorescence ratio is on record?
**A.** 0.97 ± 0.045

**Q.** How did the switch fluorescence ratio turn out when GCTCGTACGA was run?
**A.** 1.03 ± 0.027

**Q.** Which switch fluorescence ratio does the source give for GCTCGTTATA here?
**A.** 1.02 ± 0.019

**Q.** For GCTCGTTTAG, which switch fluorescence ratio is on record?
**A.** 1.01 ± 0.02

**Q.** For GCTCTACGGT, which switch fluorescence ratio is on record?
**A.** 1.013 ± 0.0099

**Q.** Which switch fluorescence ratio does the source give for GCTCTCCTGT here?
**A.** 1.02 ± 0.023

**Q.** Which switch fluorescence ratio does the source give for GCTGACGGGT here?
**A.** 0.976 ± 0.018
